{"source": "IntAct's records for PubMed 30190310", "parents": {"B1": {"name": "Kelch repeat and BTB domain-containing protein 8 (Homo sapiens), Q8NFY9 (parent)", "chain": "MAASADLSKSSPTPNGIPSSDPASDAMDPFHACSILKQLKTMYDEGQLTDIVVEVDHGKTFSCHRNVLAAISPYFRSMFTSGLTESTQKEVRIVGVEAESMDLVLNYAYTSRVILTEANVQALFTAASIFQIPSIQDQCAKYMISHLDPQNSIGVFIFADHYGHQELGDRSKEYIRKKFLCVTKEQEFLQLTKDQLISILDSDDLNVDREEHVYESIIRWFEHEQNEREVHLPEIFAKCIRFPLMEDTFIEKIPPQFAQAIAKSCVEKGPSNTNGCTQRLGMTASEMIICFDAAHKHSGKKQTVPCLDIVTGRVFKLCKPPNDLREVGILVSPDNDIYIAGGYRPSSSEVSIDHKAENDFWMYDHSTNRWLSKPSLLRARIGCKLVYCCGKMYAIGGRVYEGDGRNSLKSVECYDSRENCWTTVCAMPVAMEFHNAVEYKEKIYVLQGEFFLFYEPQKDYWGFLTPMTVPRIQGLAAVYKDSIYYIAGTCGNHQRMFTVEAYDIELNKWTRKKDFPCDQSINPYLKLVLFQNKLHLFVRATQVTVEEHVFRTSRKNSLYQYDDIADQWMKVYETPDRLWDLGRHFECAVAKLYPQCLQKVL"}, "B2": {"name": "Kelch-like protein 12 (Homo sapiens), Q53G59 (parent)", "chain": "MGGIMAPKDIMTNTHAKSILNSMNSLRKSNTLCDVTLRVEQKDFPAHRIVLAACSDYFCAMFTSELSEKGKPYVDIQGLTASTMEILLDFVYTETVHVTVENVQELLPAACLLQLKGVKQACCEFLESQLDPSNCLGIRDFAETHNCVDLMQAAEVFSQKHFPEVVQHEEFILLSQGEVEKLIKCDEIQVDSEEPVFEAVINWVKHAKKEREESLPNLLQYVRMPLLTPRYITDVIDAEPFIRCSLQCRDLVDEAKKFHLRPELRSQMQGPRTRARLGANEVLLVVGGFGSQQSPIDVVEKYDPKTQEWSFLPSITRKRRYVASVSLHDRIYVIGGYDGRSRLSSVECLDYTADEDGVWYSVAPMNVRRGLAGATTLGDMIYVSGGFDGSRRHTSMERYDPNIDQWSMLGDMQTAREGAGLVVASGVIYCLGGYDGLNILNSVEKYDPHTGHWTNVTPMATKRSGAGVALLNDHIYVVGGFDGTAHLSSVEAYNIRTDSWTTVTSMTTPRCYVGATVLRGRLYAIAGYDGNSLLSSIECYDPIIDSWEVVTSMGTQRCDAGVCVLREK"}}}
{"variants_of": "B1", "conditions": "with fxl17_human FBXL17, Q9UF56"}
{"variant": "K40D", "effect of a mutation on the interaction": "increasing interaction strength"}
{"variant": "K40A", "effect of a mutation on the interaction": "with no effect"}
{"variant": "V67A", "effect of a mutation on the interaction": "increasing interaction strength"}
{"variant": "V67D", "effect of a mutation on the interaction": "disrupting interaction strength"}
{"variant": "Y43A", "effect of a mutation on the interaction": "increasing interaction strength"}
{"variant": "Y43D", "effect of a mutation on the interaction": "disrupting interaction strength"}
{"variant": "L39A", "effect of a mutation on the interaction": "decreasing interaction strength"}
{"variant": "L39D", "effect of a mutation on the interaction": "disrupting interaction strength"}
{"variants_of": "B2", "conditions": "with fxl17_human FBXL17, Q9UF56"}
{"variant": "MGGIMAPKDIMTNTHAKSILNSMNSLRKSNTLCDVTLRVEQKDFPAHRIALAACSDYFCKMFTSELSEKGKPYVDIQGLTASTMEILLDFVYTETVHVTVENVQELLPAACLLQLKGVKQACCEFLESQLDPSNCLGIRDFAETHNCVDLMQAAEVFSQKHFPEVVQHEEFILLSQGEVEKLIKCDEIQVDSEEPVFEAVINWVKHAKKEREESLPNLLQYVRMPLLTPRYITDVIDAEPFIRCSLQCRDLVDEAKKFHLRPELRSQMQGPRTRARLGANEVLLVVGGFGSQQSPIDVVEKYDPKTQEWSFLPSITRKRRYVASVSLHDRIYVIGGYDGRSRLSSVECLDYTADEDGVWYSVAPMNVRRGLAGATTLGDMIYVSGGFDGSRRHTSMERYDPNIDQWSMLGDMQTAREGAGLVVASGVIYCLGGYDGLNILNSVEKYDPHTGHWTNVTPMATKRSGAGVALLNDHIYVVGGFDGTAHLSSVEAYNIRTDSWTTVTSMTTPRCYVGATVLRGRLYAIAGYDGNSLLSSIECYDPIIDSWEVVTSMGTQRCDAGVCVLREK", "note": "[V50A;A60K]", "effect of a mutation on the interaction": "with no effect"}
{"variant": "MGGIMAPKDIMTNTHAKSILNSMNSLRKSNTLCDVTLRVEQKDFPAHRIVLAACSDYFCAMFTSELAEKGKPYVDIQGLTASTMEILLDFVYTETVHVTVENVQELLPAACLLQLKGVKQACCEFLESQLDPSNCLGIRDFAETHNCVDLMQAAEVFSQKHFPEVVQHEEFILLSQGEVEKLIKCDEIQVDSEEPVFEAVINWVKHAKKEREESLPNLLQYVRMPLLTPRYITDVIDAEPFIRCSLQCRDLVDEAKKFHLRPELRSQMQGPRTRARLGANEVLLVVGGFGSQQSPIDVVEKYDPKTQEWSFLPSITRKRRYVASVSLHDRIYVIGGYDGRSRLSSVECLDYTADEDGVWYSVAPMNVRRGLAGATTLGDMIYVSGGFDGSRRHTSMERYDPNIDQWSMLGDMQTAREGAGLVVASGVIYCLGGYDGLNILNSVEKYDPHTGHWTNVTPMATKRSGAGVALLNDHIYVVGGFDGTAHLSSVEAYNIRTDSWTTVTSMTTPRCYVGATVLRGRLYAIAGYDGNSLLSSIECYDPIIDSWEVVTSMGTQRCDAGVCVLREK", "note": "[S67A]", "effect of a mutation on the interaction": "with no effect"}
{"variant": "MGGIMAPKDIMTNTHAKSILNSMNSLRKSNTLCDVTLRVEQKDFPAHRIVLAACSDYFCAMFTSELEEKGKPYVDIQGLTASTMEILLDFVYTETVHVTVENVQELLPAACLLQLKGVKQACCEFLESQLDPSNCLGIRDFAETHNCVDLMQAAEVFSQKHFPEVVQHEEFILLSQGEVEKLIKCDEIQVDSEEPVFEAVINWVKHAKKEREESLPNLLQYVRMPLLTPRYITDVIDAEPFIRCSLQCRDLVDEAKKFHLRPELRSQMQGPRTRARLGANEVLLVVGGFGSQQSPIDVVEKYDPKTQEWSFLPSITRKRRYVASVSLHDRIYVIGGYDGRSRLSSVECLDYTADEDGVWYSVAPMNVRRGLAGATTLGDMIYVSGGFDGSRRHTSMERYDPNIDQWSMLGDMQTAREGAGLVVASGVIYCLGGYDGLNILNSVEKYDPHTGHWTNVTPMATKRSGAGVALLNDHIYVVGGFDGTAHLSSVEAYNIRTDSWTTVTSMTTPRCYVGATVLRGRLYAIAGYDGNSLLSSIECYDPIIDSWEVVTSMGTQRCDAGVCVLREK", "note": "[S67E]", "effect of a mutation on the interaction": "disrupting interaction strength"}
